# T1: His-tagged Hmmr (mouse, UniProt Q00547 1-794)
# T1 construct: Hmmr, mouse; It is not restated for the bacterial construct; also called His-Hmmr; purified Hmmr; source: bacteria BL21 (DE3), purified (Ni-NTA)
# T1 sequence (looked up): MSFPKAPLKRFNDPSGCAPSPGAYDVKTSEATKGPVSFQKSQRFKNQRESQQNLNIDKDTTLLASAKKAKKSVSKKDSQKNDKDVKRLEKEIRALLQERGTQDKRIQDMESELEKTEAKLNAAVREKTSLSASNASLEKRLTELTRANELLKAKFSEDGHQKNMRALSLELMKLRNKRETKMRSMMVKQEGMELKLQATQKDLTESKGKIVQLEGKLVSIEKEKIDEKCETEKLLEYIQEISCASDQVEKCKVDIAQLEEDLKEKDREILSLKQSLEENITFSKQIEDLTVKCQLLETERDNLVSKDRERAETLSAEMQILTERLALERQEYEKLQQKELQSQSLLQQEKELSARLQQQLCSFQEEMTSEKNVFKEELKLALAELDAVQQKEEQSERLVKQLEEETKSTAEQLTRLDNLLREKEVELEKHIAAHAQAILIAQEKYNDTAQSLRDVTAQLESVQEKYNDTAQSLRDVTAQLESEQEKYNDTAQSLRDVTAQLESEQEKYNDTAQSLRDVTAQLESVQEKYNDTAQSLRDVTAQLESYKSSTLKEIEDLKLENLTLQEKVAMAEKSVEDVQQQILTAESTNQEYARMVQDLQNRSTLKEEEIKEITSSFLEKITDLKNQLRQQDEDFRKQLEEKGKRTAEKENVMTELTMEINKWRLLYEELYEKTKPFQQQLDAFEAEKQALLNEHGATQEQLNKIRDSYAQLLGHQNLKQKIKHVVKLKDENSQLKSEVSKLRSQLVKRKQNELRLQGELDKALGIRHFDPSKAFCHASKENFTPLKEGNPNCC
# Molecular target: T1, His-tagged Hmmr
# Assay: co-IP; in vitro binding assay: purified His-tagged Hmmr and HA-tagged Trim25 mixed without RNA or with in vitro transcribed Terc-53, 5S rRNA, full-length Terc or Terc-53 mut; one sample with Terc-53 treated with RNase A; immunoprecipitated with His antibody, blot with HA antibody
# Conditions: both partners purified
binder,measurement,value
"HA-tagged Trim25 (natural protein, mouse, UniProt Q61510 1-634, looked up, Trim25, mouse; also called HA-Trim25; purified Trim25; source: purified) MAELNPLAEELSCSVCLELFKEPVTTPCGHNFCMSCLDETWVVQGPPYRCPQCRKVYQVRPQLQKNTVMCAVVEQFLQAEQARTPVDDWTPPARFSASSAATQVACDHCLTEIAVKTCLVCMASFCQEHLRPHFDSPAFQDHPLQSPIRDLLRRKCTQHNRLRELFCPEHGECICHICLVEHKTCSPTTLSQASADLEYKLRNKLTIMHSHINGATKALEDVRSKQQCVQDSMKRKMEQLRQEYMEMKAVIDAAETSSLRKLKEEEKRVYGKFDTIYQVLVKKKSEMQKLKAEVELIMDKGDEFEFLEKAAKLQGESTKPVYIPKIDLDHDLIMGIYQGAADLKSELKHSIKKLQKKSEEHNGSGNKGDQTQSTFKPVQPSKKTIQEKKTKKTPVAPGPPSHFSPNKLPTFGAPGQSLDSKATSPDAAPKASAAQPDSVGVKAKVLENFLTKSRTELLEYFVKVIFDYNTAHNKVSLSNKYTTASVSDGLQHYRSHPQRFTYCSQVLGLHCYKNGIHYWEVELQKNNFCGVGICYGSMERQGPESRLGRNPNSWCVEWFNNKISAWHNNVEKTLPSTKATRVGVLLNCDHGFVIFFAVTEKVHLMYKFKVDFTEALYPAFWVFSAGTTLSICSK",binding result,binds

# — article PMC11700592, “Noncoding RNA Terc-53 and hyaluronan receptor Hmmr regulate aging in mice” (Protein & Cell, 2024)
